# In the supplement of paper PMC7877785:
# ± gives the uncertainty stated by the source.
# Test: self-splicing fitness, log relative to wild type (ln ratio); higher = more splicing; Tetrahymena group I intron in knt gene, E. coli kanamycin selection, DiMSum; sequences stand for … in CUCUCU…GGAGGGAAAAGUUAUCAGGCAUGCACCUGGUAGCUAGUCUUUAAACCAAUAGAUUGCAUCGGUUUAAAAGGCAAGACCGUCAAAUUGCGGGAAAGGGGUCAACAGCCGUUCAGUACCAAGUCUCAGGGGAAACUUUGAGAUGGCCUUGCAAAGGGUAUGGUAAUAAGCUGACGGACAUGGUCCUAACCACGCAGCCAAGUCCUAAGUCAACAGAUCUUCUGUUGAUAUGGAUGCAGUUCACAGACUAAAUGUCGGUCGGGGAAGAUGUAUUCUUCUCAUAAGAUAUAGUCGGACCUCUCCUUAAUGGGAGCUAGCGGAUGAAGUGAUGCAACACUGGAGCCGCUGGGAACUAAUUUGUAUGCGAAAGUAUAUUGAUUAGUUUUGGAGUACUCGUGGUCG
# Outline: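 Pooled colonies went to amplicon sequencing on an Illumina HiSeq 2500 after six replicate transformations. The plates were LB agar with 100 μg/mL carbenicillin, 50 μM IPTG and 0.2% rhamnose, with or without 25 μg/mL kanamycin, incubated overnight at 37°C or 30°C. The E. coli BL21(DE3) library had all eight P1ex-region intron nucleotides randomised, the intron placed in the knt kanamycin-resistance gene on pET-22b(+). DiMSum fitness is the error-weighted combination of replicate fold changes, kanamycin against none, normalised to wild type.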
Sequence,self-splicing fitness (ln) (30 °C),self-splicing fitness (ln) (37 °C)
AAACAGCAAUAUUACGUCCA,-1.19 ± 0.065,-0.777 ± 0.073
GAGUAGCAAUAUUACGCAAC,-3.77 ± 0.37,-2.66 ± 0.36
ACCCAGCAAUAUUACGCGUG,-3.53 ± 0.17,-1.9 ± 0.13
GAUCAGCAAUAUUACGUUCC,,-2.85 ± 0.4
AGAGAGCAAUAUUACGAUAA,,-2.71 ± 0.28
CAGUAGCAAUAUUACGGCCA,-1.17 ± 0.16,-1.11 ± 0.21
ACGGAGCAAUAUUACGUUAG,-2.74 ± 0.18,-2.5 ± 0.33
AAUUAGCAAUAUUACGUAAU,-1.92 ± 0.12,-0.218 ± 0.15
UGCCAGCAAUAUUACGCCGU,-3.97 ± 0.39,-2.32 ± 0.32
AACGAGCAAUAUUACGGGCA,-2.92 ± 0.24,-2.38 ± 0.24
UGGUAGCAAUAUUACGCUCA,-0.626 ± 0.14,0.26 ± 0.18
AGGCAGCAAUAUUACGCCAC,-3.45 ± 0.18,-2.48 ± 0.3
CGAGAGCAAUAUUACGGAUU,-2.72 ± 0.39,
AAACAGCAAUAUUACGCAAG,-2.56 ± 0.13,-1.8 ± 0.14
UGUUAGCAAUAUUACGAGAC,-3.17 ± 0.37,
GAUAAGCAAUAUUACGAUGG,-3.06 ± 0.31,-0.54 ± 0.21
GCGCAGCAAUAUUACGGCCG,-2.99 ± 0.38,-2.26 ± 0.26
AUAUAGCAAUAUUACGAGCA,-2.32 ± 0.24,-0.917 ± 0.18
AGUAAGCAAUAUUACGAGCG,-0.847 ± 0.072,-0.0455 ± 0.11
AUUCAGCAAUAUUACGAUUU,0.203 ± 0.088,0.898 ± 0.11
ACUGAGCAAUAUUACGAACG,-2.48 ± 0.17,-1.77 ± 0.21
AAACAGCAAUAUUACGAGUA,-1.79 ± 0.1,-1.68 ± 0.11
UUAAAGCAAUAUUACGGCGG,0.463 ± 0.11,0.0127 ± 0.13
CGAAAGCAAUAUUACGCGGU,-2.88 ± 0.17,-2.41 ± 0.18
UAAAAGCAAUAUUACGGUAU,-3.74 ± 0.23,-1.85 ± 0.21

Sequence,self-splicing fitness (ln) (30 °C),self-splicing fitness (ln) (37 °C)
AUUCAGCAAUAUUACGCCGU,-0.349 ± 0.15,0.177 ± 0.14
AUAGAGCAAUAUUACGCUUG,-0.549 ± 0.12,-0.411 ± 0.13
AAAUAGCAAUAUUACGAGAG,-4.01 ± 0.3,-2.49 ± 0.28
AGCAAGCAAUAUUACGUCAG,-2.89 ± 0.16,-1.55 ± 0.18
UUAUAGCAAUAUUACGCCUU,-2.91 ± 0.26,-0.144 ± 0.2
CUUAAGCAAUAUUACGACCG,0.42 ± 0.14,-0.4 ± 0.16
GAUUAGCAAUAUUACGGCCA,-1.41 ± 0.19,0.41 ± 0.21
UGUUAGCAAUAUUACGCCCA,0.342 ± 0.28,-0.34 ± 0.41
CUCGAGCAAUAUUACGUGGA,-2.89 ± 0.27,-1.88 ± 0.16
AUAAAGCAAUAUUACGUGUC,-3.44 ± 0.14,-3.4 ± 0.12
CCGAAGCAAUAUUACGCAGG,-2.04 ± 0.12,
CGCUAGCAAUAUUACGUUUG,-2.31 ± 0.085,-0.505 ± 0.094
CAUUAGCAAUAUUACGAGUA,-1.59 ± 0.23,-1.84 ± 0.27
GUUCAGCAAUAUUACGUGAA,-1.32 ± 0.087,-0.784 ± 0.11
CGAGAGCAAUAUUACGUUUU,-3.09 ± 0.24,-2.79 ± 0.25
GGCCAGCAAUAUUACGUGAC,-2.05 ± 0.09,-1.16 ± 0.11
CGCGAGCAAUAUUACGAUGC,,-2.16 ± 0.21
AUCGAGCAAUAUUACGUUCG,-3.25 ± 0.2,-2.52 ± 0.24
UCGCAGCAAUAUUACGUUAU,-3.3 ± 0.26,-2.51 ± 0.24
GGACAGCAAUAUUACGCGAC,-2.27 ± 0.28,-1.09 ± 0.24
UAUAAGCAAUAUUACGGUCG,-0.167 ± 0.097,-0.128 ± 0.12
CCCCAGCAAUAUUACGGGGC,-2.95 ± 0.1,-3.43 ± 0.17
CGCCAGCAAUAUUACGGAUA,-1.77 ± 0.18,-1.32 ± 0.21
GAAGAGCAAUAUUACGCGGU,-2.63 ± 0.14,-2.55 ± 0.25
